Paper PMC4482361 (Organic & biomolecular chemistry, 2011)

T1: thymidine monophosphate kinase (TMK) (Escherichia coli, UniProt P0A720)
T1 sequence (P0A720 1-213): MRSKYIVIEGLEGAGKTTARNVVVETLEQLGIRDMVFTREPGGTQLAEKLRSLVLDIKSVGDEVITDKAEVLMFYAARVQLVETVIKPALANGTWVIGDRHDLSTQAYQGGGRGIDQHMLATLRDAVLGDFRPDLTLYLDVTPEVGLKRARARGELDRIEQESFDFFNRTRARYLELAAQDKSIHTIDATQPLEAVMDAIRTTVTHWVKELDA


Columns and labels:
[1] = biological target: T1, thymidine monophosphate kinase (TMK); test: coupled assay with ACK, HPLC; assay type: biochemical; conditions: phosphate donor; same
SEC = biological target: the molecule itself; test: SEC

Row | Molecule | coupled assay with ACK, HPLC [1] | stoichiometry N (SEC)
1 | Nc1ncnc2c1ncn2[C@@H]1O[C@H](COP(=O)(O)OP(=O)(O)OP(=O)(O)O)[C@@H](O)[C@H]1O [ATP] | ATP serves as a phosphate donor thereby converting into ADP | –
2 | RavNMT (TDP-3-amino-3,6-dideoxy-D-galactose-N,N-dimethyltransferase) (enzyme, Streptomyces ravidus, UniProt D1H0I7 1-265, looked up) MSTLSVSQPGTPPTPADVEQAYGAEHADVYDAIYRGRGRDYAAEADAFLAVLRTRRPEITSLLDVACGTGAHLAALRGSVDHVEGVELSPWMHTLATRQLPGVAVHQDDMRSFNLSRRFSAVTCLFSSVGYLKSVEDLRRTLRTFRAHVAPGGVALVEPWWFPETFLDGYVGSSLVEVDGRTIARVSHTVRAGSTSRMTVEYTVAEPVNGVRRFSDLHVLSLFTREQYEDAFERAGFAVEFLKDGPSGRGLFLGVAPETTDGGPR | – | 2
3 | RavAMT (TDP-3-keto-6-deoxy-D-galactose-3-aminotransferase) (enzyme, Streptomyces ravidus, UniProt D1H0I5 1-369, looked up) MKVPYLDLKGPHTEIRAELDAAYHRVVDSGWFVLGEEVRAFEEEYAAYCGAAHCVSVATGCDALELALRALDIGPGDEVVVPSATYIATWLAVSETGADVVPVEVDPDTHLLDPAAVEAAVTPATRAVMPVHLYGQPADLPALRRVADRHGLALIDDAAQAHGARLNGTRVGGGGLATATAFSFYPGKNLGALGDGGGILTDDAELAERLRLLRNYGSRRKYHHELKSTNSRLDELHAAVLRAKLPHLDRWNARRAEIAERYRAAFADLPGLRPTAVPEGAEPSWHLYVVCCDDRDAVQRSLTDAGVGTLIHYPVPVHLSPAYADEKRWPAGAFPRAEAIAAQVLSLPMGPHLSDADVSYVIEAVRAAV | – | 2
4 | RavIM (TDP-4-keto-6-deoxy-D-glucose-3,4-ketoisomerase) (enzyme, Streptomyces ravidus, UniProt D1H0I6 1-156, looked up) MTDTTAATGTTAGTDVSRVGKVRPCALMKLQTIGDPRGQLAVVEGAKDIGFPVKRLFYLYDLPTSSVRGDHAHRNLEQFVIPINGSFDVAVDDTVDTAVCRLDDPGQGLYIGPMVWNSLVNFSEGAIALVLASEHYDEADYYRRYDEFLADAGARP | – | 2
